Data on 18 sequences can be found in a protein production outcome set (Wang et al. 2014).

The nature of this data set: label from the status in PepcDB records.
As for “MAELENPSVMSKLIAFLSSLLERVAESNDLTRRVATQSQRVSVFHGLSRPTITIQSYLERIFKYANCSPSCFVVAYVYLDRFTHRQPSLPINSFNVHRLLITSVMVAAKFLDDLYYNNAYYAKVGGISTKEMNFLELDFLFGLGFELNVTPNTFNAYFSYLQKEMTLLQPLSLVVVPSSRSLITFNDDEASHQKQQQQQLAV”, the protein production result is “failed”.

With “MAELGITLRTVQSLGPGETIWDAGHRAAVRGFGVRRQRGAPVYVLKYRAHGRQRFFTIGPHGSPWTPERARREAKRLLGLVADGKDPADDRAEAALQAADTLLKIADQYLKHAKQKQRPRTYSEIERYLLTAWKPLHPVSVFLIKRRHVAIRIAEIATGQGAVTAARARAALSAMFNWAIREGLDIPANPVLGTNRPAAPRSRDRVLADGELAEIWAALGDDDYGRIVKLLLLTAQRREEVGSMRRTELDLENSVWKIPGNRTKNHREHKVPLTKAAIALIPLPRGNREYVFGDGPRREGDNHRGYSGWSKSKAGLDARLLAVRQKALDAGVAAEPLPDWHLHDLRRTAATVMADRLGVFPHIVEAVLNHVSGHRAGVAGVYNLARYETDMRAALNAWADNIKDIVAS”, the protein production result is “failed”.

For the sequence “MAENGESSGPPRPSRGPAAAQGSAAAPAEPKIIKVTVKTPKEKEEFAVPENSSVQQFKEAISKRFKSQTDQLVLIFAGKILKDQDTLIQHGIHDGLTVHLVIKSQNRPQGQSTQPSNAAGT”, the protein production entry is “failed”.

For the sequence “MAEQKNHNNELNVEDALTQSEAFLVKNKKAIIGAVVAVIVIVAGAILYKNFYAEPREEKAQAALFKSEQYFEQSAYEQALNGDSIGSIGFLKVADQFSGTKAANLAKAYAGICYQNLGKYEEAIKALDGFSGDDQMVAPAIQGAIGNCYAQLGQLDKATSALLKAADHADNSTLSPIFLLQAGEILMKQGKNEEAVKAFTKIKDKYFQSYQAMDIDKYIEQAKLLKK”, the protein production result is “failed”.

“MAESGVSVGSESLQLYEAQFFGFTPETCTLRVRDAFRDSLNHILVAVESVFVKRLCPGRDPPAELRLTARESTQKLRQFLQERFEIMFQRMKGMLIDRMLSIPQNVLLPEDQMHQKYPEGKEELTKLQESIAKLLQAYEAEVCSKQALLAELEEQKETQKQLDEVLRWIEELRVSWRREGMGNVQDSVRHMIETVGQLQDVVGKINKQNSALDEV”: the protein production result is listed as “failed”.

“MAETAAGVGRFKTNYAVERKIEPFYKGGKAQLDQTGQHLFCVCGTRVNILEVASGAVLRSLEQEDQEDITAFDLSPDNEVLVTASRALLLAQWAWQEGSVTRLSKAIHTAPVATMAFDPTSTLLATGGCDGAVRVWDIVRHYGTHHFRGSPGVVHLVAFHPDPTRLLLFSSATDAAIRVWSLQDRSCLAVLTAHYSAVTSLAFSADGHTMLSSGRDKICIIWDLQSCQATRTVPVFESVEAAVLLPEEPVSQLGVKSPGLYFLTAGDQGTLRVWEAASGQCVYTQAQPPGPGQELTHCTLAHTAGVVLTATADHNLLLYEARSLRLQKQFAGYSEEVLDVRFLGPEDSHVVVASNSPCLKVFELQTSACQILHGHTDIVLALDVFRKGWLFASCAKDQSVRIWRMNKAGQVMCVAQGSGHTHSVGTVCCSRLKESFLVTGSQDCTVKLWPLPKALLSKNTAPDNGPILLQAQTTQRCHDKDINSVAIAPNDKLLATGSQDRTAKLWALPQCQLLGVFSGHRRGLWCVQFSPMDQVLATASADGTIKLWALQDFSCLKTFEGHDASVLKVAFVSRGTQLLSSGSDGLVKLWTIKNNECVRTLDAHEDKVWGLHCSRLDDHALTGASDSRVILWKDVTEAEQAEEQARQEEQVVRQQELDNLLHEKRYLRALGLAISLDRPHTVLTVIQAIRRDPEACEKLEATMLRLRRDQKEALLRFCVTWNTNSRHCHEAQAVLGVLLRREAPEELLAYEGVRAALEALLPYTERHFQRLSRTLQAAAFLDFLWHNMKLPVPAAAPTPWETHKGALP”: the protein production entry was “failed”.

With “MAETSIEWTDVTWNPVAGCTVLTAGCTNCYAMRMAARLEAMGVEKYAGLTRKSGGRAKWTGRIFLDRKALSIPASWSKPRRVFVNSMSDLFHSDVPTDFISDVWKVMAQTPRHTYQILTKRPDRMVEIVPGLAKLRNVWLGTSVEDARVIYRIDKLRQVPAAVRFVSFEPLIGSVSGAGLRNIHWAIVGGESGPKARSMDPAWVDEIESMCRDQGAAFFFKQWGGKNKKAAGRTLNGRLYDEMPAPSMP”, the protein production result is given as “failed”.

On to “MAEVLVYVDHVDGAVRKPTLELLTLARRIGEPVALALGSGAENTAAALAEHGAGKVLTHDAAEYADYLVVPKVDALQAAYEAVSPAAVLIPSSAEGKEIAARLAVRIGSGIITDAVDLEAGDEGPVATQSAFAASFTTKSRVSKGTPVITVKPNSAPVEAAPAAGAVEALSVSFSDKATGTKVTGRTPRESTGRPELTEAAIVVSGGRGVNGAENFAIIEALADSLGAAVGASRAAVDAGWYPHSNQVGQTGKAVSPQLYIASGISGAIQHRAGMQTSKTIVAINKDAEAPIFDLVDYGVVGDLFDVVPQLTDEVKTRKG”, for which the protein production result was “failed”.

As to “MAEVTGVRALTGAALDAALEDVARLRIAVFRAWPYLYDGDLDYERDYLQAYRNSDRAIVVGAFDGDRLIGASTGMPLADHADDFAAAFADSGLALDQVFYCAESVLLPDYRGHGVGHRFFDLREGHARALGFAKCAFCGVQRPADHPLKPDSYRPLDAFWRARGYEKLPGAVAHFSWKDLDQENETDKPLQFWIRDL”, the protein production result is on record as “failed”.

Take “MAFTESDVYNNTAFFEQYMKRRYRENSPNESIEKPVFFQLIGHVQGKQILDLGCGDAKFGAELLEKGCYSYTGIEGSELMYEKAKKQLENKNGSVHFLNLKDYTYPSSTFDLVTSRLALHYIEHLDTIFQNVFQTLKTNGTFTFSVQHPVITSSFESLQTSGKRTIWLVDDYFKLGKRVEPWIDQEVIKYHRTTEEYFTLLQQAGFTITSLKEATPNPTYFQDEEEYKRRLRIPLFLLFSCTK”: the protein production entry was “failed”.

In the case of “MAGALITASAACAEDAPDFRLDLDTGGHTARIARLAFTPDGEDIVSASDDKTIRIWDWQSGVTLRTIRGYLGNGSDGKIFAVSVSPDGKTIAAGGYFGAGLGDKPPYGDIRLFDFATGKMKAVLRAADYATYDLAFSPDGKTLAAGGGDGMVYLWRLDDKSATGWTLDKKLDADSWHIDKLAFAAAGTRLAATTTDNGIRLWDVAKGEEIALPDEAEPLRDVSVLALAISQDGSLFATGSKDGQVQLWRAADGTLVHAMPKQDFLIGSLTFAKGSRLVASCGYRCADKHRSIVWNTDSGEKLLDYSGHDGTVYASAANADGSLVATAGGTRNAIQVWDPATGERKALLQGVGEPVTAIGIDAANGIIAWGNTNPCPERVACPEQLGALDKRLELPTTERFFDDPQPLTEPGSFARAAQSDGEWSLHATKGGKDALENAVLEIANGGKVVRSIENDATNGFAHSAFTLIDNGLGLITGGNDGTLLEYKAATARVSGEFTGHTGEINAMAASEKAGLLVTGSADQTLRLWNLKTHELIVSMFFAGPQWIAWMPQGYYYSSDEGDKLIGWHVNQGRDHEGRFIRAGQLKKYLWSPEMVRRAIILRSAKQAVKEMRPGVDNELQKLLQRKPPEFGVRLADDQSKVRDGYVAVEITGAKEAGTDVAGFSILSNSRNVGDIATRSAEGDKTTVEVPVENGQNTIRITGTNEYGYLTERSVTALARKTEKAEAKGKLYVAVIGVDKYPFLTDACSGHACDLRYPVDDATEFLEVVAQKSAPLFSSMETLVLVNREALDESPDKAKQTYTVASADNIMEPDSHTIDDQLADFLDRPGEHDTTIVFVAGHGINIDEDYYFIPTDGRKQDADRWKRSSLVDWGDIQKSVERAKGMRFMLLDTCHAANAFNPRLEKDAQDARIVVFSATAANNTAAELPELGHGVFTYSILEGLRGKARTSDGGITLFGLADFISHEVVRLTASKQKPFYYVGGVENIVLAEP”, the protein production entry is recorded as “failed”.

With “MAGAMRKMAVYLGLVEDDGYDGRGFDPDDDFEPELDPEPERDHRRHEPAHQSHGAHQSQRDEEVRVVQPPAQREPMPRAASLAAESSRPARIAPVASITQERASLEKSAPVIMPKVVSEREPYRITTLHPRTYNEARTIGEHFREGTPVIMNLTEMDDTDAKRLVDFAAGLVFGLHGSIERVTQKVFLLSPANVDVTAEDKARIAEGGFFNQSLEHHHHHH”, the protein production result is “failed”.

On to “MAGASVAATTLKGDTSLLAGGAIRGAINAFGKDKKLKTQLASSGKLYGKYAKAASKIENLVLGGENISLVVDPP”, for which the protein production entry is reported as “failed”.

Regarding “MAGCGANDTSSTKEKASSEKSGVTKEITASVNKMETIISKLNDSVEKGDQKEIEKKGKELNSYWLSFENDIRSDYPFEYTEIEKHLQPIYTEAQKDKPDAGKIKTESESLKASLEDLTEAKKSGKKASDQLAKAADEYKGYVKEQSDQLVKATEAFTGAVKSGDIEKSKTLYAKARVYYERIEPIAESLGDLDPKIDARENDVEEGDKWTGFHKLEKAIWKDQDISGEKATADQLLKDVKELDGSIQSLKLTPEQIVAGAMELLNEAGISKITGEEERYSRIDLVDLMANVEGSEAVYQTVKSALVKDHSDLTEKLDTEFSEFEVLMAKYKTNDQSYTSYDKLSEKQIRELSTKLTTLSETMSKIANVLLEHHHHHH”, the protein production result was “not failed”.

“MAGDVEGFCSSIHDTSVSAGFRALYEEGLLLDVTLVIEDHQFQAHKALLATQSDYFRIMFTADMRERDQDKIHLKGLTATGFSHVLQFMYYGTIELSMNTVHEILQAAMYVQLIEVVKFCCSFLLAKICLENCAEIMRLLDDFGVNIEGVREKLDAFLLDNFVPLMSRPDFLSYLSFEKLMSYLDNDHLSRFPEIELYEAVQSWLRHDRRRWRHTDTIIQNIRFCLMTPSSVFEKVGTFESDRQDSSI”: the protein production entry was “failed”.

Turning to “MAGDYHRGEMDIQEQAATYDAFGKMTKWGSLAISVLLLFFTLLFCTSAGFIGSAIASIVLLVLGVVLLKEKPTQSH”, the protein production result is on record as “failed”.

Take “MAGENSDNEPSSPASPSSAGFNTDQLPISTSQNSENFSDEEEAAVDTQVIRDEPDEAEDEEEEEGEDLFNDTFMNDYRKMDENDQYESNGIDDSVDDERDLGQAMLDRRAADADLDARENRLANRKLPHLLHDNDSDDWNYRPSKRSRTTVPPRGNGGDPDGNPPSSPGVSQPDISMTDQTDDYQDEDDNDDEAEFEMYRIQGTLREWVMRDEVRRFIAKKFKDFLLTYVKPKNENGDIEYVPNKCSLEIDYKEFIHVHPNIAIWLADAPQPVLEVMEEVSEKVIFDLHPNYKNIHTKIYVRVTNLPVNDQIRNIRQIHLNTMIRIGGVVTRRSGVFPQLQQVKYDCNKCGAVLGPFFQNSYSEVKVGSCSECQSKGPFTVNVEQTIYRNYQKLTIQESPGTVPAGRLPRHKEVILLNDLIDCARPGEEIEVTGIYTNNFDLSLNTKNGFPVFATVVEANYVTKKQDLFSAYKLTQEDKTQIEELSKDPRIVERIIKSIAPSIYGHEDIKTALALAMFGGQEKNIKGKHRLRGDINVLLLGDPGTAKSQFLKYVEKTGQRAVYTTGKGASAVGLTAAVHKDPVTREWTLEGGALVLADRGICLIDEFDKMNDQDRVSIHEAMEQQSISISKAGIVTSLQARCSVIAAANPVGGRYDSSKSFAQNVELTDPILSRFDILCVVKDVVDPVTDEMLAEFVVNSHFKSQPKGGKMEDSDPEDGIQGSSGSTDPEVLPQNLLKKYLTYSKLYVFPKLGELDAKKLETVYANLRRESMNGQGVSIATRHLESMIRMSEAHARMHLRQYVTEEDVNMAIRVLLDSFISTQKFGVQRTLRESFKRYITYKKDFNSLLLVLLKELVKNALKFEEIISGSNSGLPTIEVKIEELQTKAKEYDIADLRPFFSSTDFSKAHFELDHGRGMIKCPKRLITW”: the protein production result is reported as “failed”.

On to “MAGFMKNAMSYLGMSDVVDDEDDYIEEDEEQKPASKSAFDSDHTVTPLASTTAPAASSTTKPFPGGRVNRITTIHPKSYEDAQLVGRALRDGVPVVLNLTGVAEAVAYRIVDFSAGVVFGVRGSLERVTPRVFLLSPAQVNIKVEEPTKPASAHDLFADLEHHHHHH”, for which the protein production result is recorded as “failed”.
